For assay [1], the target named is Phos-Sx4-GST (C-terminally GST-tagged Sx4 cytosolic domain harbouring two mutations Y115E and Y251E) (UniProt P70452). The assay is described as follows: ITC; MicroCal VP-ITC; syntaxins (WT-Sx4 298 µM, Phos-Sx4 308.25 µM) titrated with SNAP23 (64 µM); nonlinear least squares fit. (Isothermal titration calorimetry measures the heat released or taken up as one component is titrated into another.)

The target in assay [2] is WT-Sx4-GST (C-terminally GST-tagged Syntaxin 4 cytosolic domain) (UniProt P70452). The description is as above.
The target of assay [3] is m4 + m5 (ternary SNARE complex with His-SNAP23 and GST-VAMP2). Description: in vitro SNARE complex assembly assay (SDS-PAGE, anti-Sx4 immunoblot, ImageJ quantification). Conditions: 5 µM Sx4-GST variant with equimolar GST-VAMP2 and His-SNAP23, 4 °C, 20 min; parent: est. 1.0; read off a plot. (In western blotting, separated proteins are transferred to a membrane and probed.)

This note sets out measurements from PMC10741561.

Take “His-SNAP23 (N-terminally His-tagged SNAP23) (from UniProt O09044 1-210) (natural protein)”: the Kd was 1.22 µM in assay [1] and 5.6 µM in assay [2].

In the case of “WT-Sx4-GST (C-terminally GST-tagged Syntaxin 4 cytosolic domain) (from UniProt P70452) L173A; E174A”, in assay [3], the ratio to parent came out at 1.5.

As a reminder, the Kd is the concentration at which binding is half-saturated.
